Assay results published in patent US11504441B2, “Radiolabeled compounds targeting the prostate-specific membrane antigen” (PROVINCIAL HEALTH SERVICES AUTHORITY, priority 2019, dated 2022).

Assays:
in vivo = settings: male, NODSCID 1L2RγKO, mouse, iv, total radioactivity; for excreta dose per gram or mL at 1 h: Urine uptake
Protocol: (§1) LNCaP cell line was obtained from ATCC (LNCaP clone FGC, CRL-1740). […] Cells were cultured in PRM I 1640 medium supplemented with 10% FBS, penicillin (100 U/mL) and streptomycin (100 μg/mL) at 37° C. in a humidified incubator containing 5% CO2. Cells grown to 80-90% confluence were then washed with sterile phosphate-buffered saline (1× PBS pH 7.4) and collected by trypsinization. The collected cells concentration was counted with a Hausser Scientific (Horsham, Pa.) Hemacytometer.
(§2) Imaging and biodistribution experiments were performed using NODSCID 1 L2RγKO male mice. Mice were anesthetized by inhalation with 2% isoflurane in oxygen, and implanted subcutaneously with 1×10^7 LNCaP cells behind left shoulder. Mice were imaged or used in biodistribution studies when the tumor grew up to reach 5-8 mm in diameter during 5-6 weeks.
(§3) PET imaging experiments were conducted using Siemens Inveon micro PET/CT scanner. Each tumor bearing mouse was injected 6-8 MBq of Ga-68 labeled tracer through the tail vein under anesthesia (2% isoflurane in oxygen). The mice were allowed to recover and roam freely in their cage. After 50 min, the mice were sedated again with 2% isoflurane in oxygen inhalation and positioned in the scanner. A 10-min CT scan was conducted first for localization and attenuation correction after segmentation for reconstructing the PET images. Then, a 10-min static PET imaging was performed to determined uptake in tumor and other organs. The mice were kept warm by a heating pad during acquisition. For biodistribution studies, the mice were injected with the radiotracer as described above. The mice was anesthetized with 2% isoflurane inhalation, and euthanized by CO2 inhalation. Blood was withdrawn immediately from the heart, and the organs/tissues of interest were collected. The collected organs/tissues were weighed and counted using a Perkin Elmer (Waltham, Mass.) Wizard2 2480 gamma counter. The uptake in each organ/tissue was normalized to the injected dose using a standard curve, and expressed as the percentage of the injected dose per gram of tissue (% ID/g).
(§4) LNCaP cell line was obtained from ATCC (LNCaP clone FGC, CRL-1740). […] Cells were cultured in PRM I 1640 medium supplemented with 10% FBS, penicillin (100 U/mL) and streptomycin (100 μg/mL) at 37° C. in a humidified incubator containing 5% CO2. Cells grown to 80-90% confluence were then washed with sterile phosphate-buffered saline (1× PBS pH 7.4), and collected by trypsinization. The collected cell concentration was counted with a Hausser Scientific (Horsham, Pa.) Hemacytometer.
(§5) Imaging and biodistribution experiments were performed using NODSCID 1L2RγKO male mice. Mice were anesthetized by inhalation with 2% isoflurane in oxygen, and implanted subcutaneously with 1×10^7 LNCaP cells behind left shoulder. Mice were imaged or used in biodistribution studies when the tumor grew up to reach 5-8 mm in diameter during 5-6 weeks.
(§6) PET imaging experiments were conducted using Siemens Inveon micro PET/CT scanner. Each tumor bearing mouse was injected 6-8 MBq of Ga-68 or F-18 labeled tracer through the tail vein under anesthesia (2% isoflurane in oxygen). The mice were allowed to recover and roam freely in their cage. After 50 min, the mice were sedated again with 2% isoflurane in oxygen inhalation and positioned in the scanner. A 10-min CT scan was conducted first for localization and attenuation correction after segmentation for reconstructing the PET images. Then, a 10-min static PET imaging was performed to determined uptake in tumor and other organs.
(§7) For biodistribution studies, the mice were injected with the radiotracer as described above.

[1] = test system: PSMA-expressing LNCaP cancer xenografts; settings: mouse, in vivo
Protocol: as §1, §2, §3, §4, §5, §6, §7

| Structure (SMILES) | tissue uptake at 1 h (in vivo; Adrenal glands uptake) [%ID/g] | tissue uptake at 1 h (in vivo; Blood uptake) [%ID/g] | tissue uptake at 1 h (in vivo; Bone uptake) [%ID/g] | tissue uptake at 1 h (in vivo; Brain uptake) [%ID/g] | tissue uptake at 1 h (in vivo; Fat uptake) [%ID/g] | tissue uptake at 1 h (in vivo; Heart uptake) [%ID/g] | tissue uptake at 1 h (in vivo; Intestine uptake) [%ID/g] | tissue uptake at 1 h (in vivo; Kidneys uptake) [%ID/g] | tissue uptake at 1 h (in vivo; Lacrimal uptake) [%ID/g] | tissue uptake at 1 h (in vivo; Liver uptake) [%ID/g] | tissue uptake at 1 h (in vivo; Lungs uptake) [%ID/g] | tissue uptake at 1 h (in vivo; Muscle uptake) [%ID/g] | tissue uptake at 1 h (in vivo; Pancreas uptake) [%ID/g] | tissue uptake at 1 h (in vivo; Salivary uptake) [%ID/g] | tissue uptake at 1 h (in vivo; Seminal uptake) [%ID/g] | tissue uptake at 1 h (in vivo; Spleen uptake) [%ID/g] | tissue uptake at 1 h (in vivo; Stomach uptake) [%ID/g] | tissue uptake at 1 h (in vivo; Tail uptake) [%ID/g] | tissue uptake at 1 h (in vivo; Testes uptake) [%ID/g] | tissue uptake at 1 h (in vivo; Thyroid uptake) [%ID/g] | also measured |
| --- | --- | --- | --- | --- | --- | --- | --- | --- | --- | --- | --- | --- | --- | --- | --- | --- | --- | --- | --- | --- | --- |
| O=C(O)CCCCC(NC(=O)N[C@@H](CCCCNC(=O)[C@H](Cc1c2ccccc2cc2ccccc12)NC(=O)[C@H]1CC[C@H](CNC(=O)CN2CCN(CC(=O)O)CCN(CC(=O)O)CCN(CC(=O)O)CC2)CC1)C(=O)O)C(=O)O (single isomer, unassigned) [68Ga-HTK03189A, metal not drawn] | 0.35 ± 0.06 | 0.89 ± 0.22 | 0.12 ± 0.03 | 0.02 | 0.18 ± 0.11 | 0.24 ± 0.06 | 0.31 ± 0.18 | 2.65 ± 0.69 | 0.18 ± 0.18 | 0.34 ± 0.15 | 0.68 ± 0.12 | 0.14 ± 0.04 | 0.15 ± 0.04 | 0.2 ± 0.04 | 3.61 ± 4.59 | 0.21 ± 0.1 | 0.11 ± 0.06 | 0.77 ± 0.3 | 0.23 ± 0.11 | 0.25 ± 0.05 | excreta dose per gram or mL at 1 h (in vivo): 343 ± 54.4 %ID/g; Tumor uptake ([1]; male, NODSCID 1L2RγKO, iv, 1 h): 2.10 ± 0.28 % ID/g; Blood: Salivary ratio [1]: 4.39 ± 0.44; Tumor: Blood ratio [1]: 2.41 ± 0.29; Tumor: Kidney ratio [1]: 0.83 ± 0.21; Tumor: Muscle ratio [1]: 16.5 ± 4.08; Tumor: Salivary ratio [1]: 10.5 ± 1.07 |
| O=C(O)CCC[C@H](NC(=O)N[C@@H](CCCCNC(=O)[C@H](Cc1c2ccccc2cc2ccccc12)NC(=O)Cc1ccc(CNC(=O)CN2CCN(CC(=O)O)CCN(CC(=O)O)CCN(CC(=O)O)CC2)cc1)C(=O)O)C(=O)O [68Ga-HTK04036, metal not drawn] | 0.3 ± 0.16 | 0.69 ± 0.35 | 0.1 ± 0.03 | 0.02 ± 0.01 | 0.09 ± 0.05 | 0.22 ± 0.12 | 0.41 ± 0.23 | 5.82 ± 5 | 0.06 ± 0.03 | 0.48 ± 0.67 | 0.55 ± 0.26 | 0.11 ± 0.06 | 0.13 ± 0.07 | 0.18 ± 0.08 | 2.08 ± 3.09 | 0.27 ± 0.13 | 0.12 ± 0.11 | 0.42 ± 0.18 | 0.25 ± 0.14 | 0.22 ± 0.12 | tissue uptake at 1 h (in vivo; Tumor uptake): 12.1 ± 2.15 %ID/g; excreta dose per gram or mL at 1 h (in vivo): 422 ± 163 %ID/g; Blood: Salivary ratio [1]: 3.68 ± 0.41; Tumor: Blood ratio [1]: 21.0 ± 8.58; Tumor: Kidney ratio [1]: 3.02 ± 1.44; Tumor: Muscle ratio [1]: 139 ± 62.4; Tumor: Salivary ratio [1]: 75.1 ± 28.2 |
| O=C(O)COC[C@H](NC(=O)N[C@@H](CCCCNC(=O)[C@H](Cc1c2ccccc2cc2ccccc12)NC(=O)[C@H]1CC[C@H](CNC(=O)CN2CCN(CC(=O)O)CCN(CC(=O)O)CCN(CC(=O)O)CC2)CC1)C(=O)O)C(=O)O [68Ga-HTK03187, metal not drawn] | 0.26 ± 0.06 | 0.67 ± 0.1 | 0.13 ± 0.03 | 0.02 | 0.07 ± 0.02 | 0.19 ± 0.04 | 0.23 ± 0.05 | 2.83 ± 0.45 | 0.09 ± 0.03 | 0.21 ± 0.05 | 0.52 ± 0.09 | 0.09 ± 0.01 | 0.12 ± 0.02 | 0.16 ± 0.02 | 0.65 ± 0.8 | 0.17 ± 0.02 | 0.08 ± 0.05 | 0.46 ± 0.1 | 0.15 ± 0.03 | 0.18 ± 0.02 | tissue uptake at 1 h (in vivo; Tumor uptake): 21.1 ± 3.62 %ID/g; excreta dose per gram or mL at 1 h (in vivo): 444 ± 192 %ID/g; Blood: Salivary ratio [1]: 4.27 ± 0.74; Tumor: Blood ratio [1]: 32.2 ± 8.53; Tumor: Kidney ratio [1]: 7.67 ± 2.10; Tumor: Muscle ratio [1]: 249 ± 61.2; Tumor: Salivary ratio [1]: 133 ± 14.0 |
